Measurements reported in the NTF2 design screens of Basanta et al. (2020).

test: protease stability score; higher = more stable; yeast display proteolysis, trypsin and chymotrypsin;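 further: relative to predicted unfolded state with 0 unfolded-like and 1 meaning tenfold more protease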

Going from “DEEEKHVRKMVEIESHSHQTGDFDSIRELADPHMRIDINGVELHGWKEFERFLREIRVHHIKIKSVRDINGVAVVDTIVHGHIDGRTDTFDAHVVILKINGQWRIKSIKIE” to “DEDEDESRRFHEEFIKRILTGDEDEFVKLLDPDVRIEIGDKKSIGRERALERFHRMLTEIRVHHVELRERTIQGDKVFLNMEVDLEFNGRRDRTKFHMIIWKVDGQWTLSEMRVK”, the protease stability score rises from 0.918 to 2.48.

Compared with “DEDEEEAEKFFWTWVESVLTGDEDMLHHLVDPNVRYSQGEKQIHGRESVVKFMSEARVDSIRIKSMHIFNGRINIDSEIDGVINGKRTRIKVHLYILKVDGRWLMQSIEVK”, “HDRKREIDHVLKLWINHFKTGDEDFHERNMDPHVRLHQGNYETHGREEVKKFLKRLFDEFGADHIHIRDYRIDVQGDKITIVMEVEIRVGNYRIDIEFILYVAKVDGKWHVHHYEIRNH” is lower in protease stability score: 2.03 for the first, 1.06 for the second.

First: SEDEEEISEFTRMHLEDIITGDEDTLRRLVDPNVRIFIDGKHIHGMETYVKRLDENFKHLGVDHVEIRIHQIRLINGRARVDGVLIIEIGDKREERRTFLILLKVNGRWVMEEYRIH
Second: NEEEETARHAIEEFVRVLMTGDWRTLERLLDPNYRIYQGDKTYIGMEHFLELWVHILDRIKNLRLEIHSYEIQGEKVHIHTILNYDGRDIEYVIIQIKINGRWLLHSLHFL
The protease stability score of the first is lower: 1.07 for the first, 1.24 for the second.

Going from “TEDEENVIEATRIFNRVLETGDEDSLKRLLDPNVRVNFDGVELIGWEDFLKFVFEWRKKAGITQVKSEPRDMDLQGNKVHNETILHINGRTFETRLVHEKVNGRWIARSIRFS” to “DEDDKRSEKYLQKLLTDTHTGDETAYRDLADPHVRIEFNGREWHGWKRAHEVFHRILEEMRLKDLRIEDVRKQGEKVRLHIRLHSTVDGKQVDLELEIILLKVNGQWYIKDVTLI”, the protease stability score falls from 1.21 to 0.886.

“DEEKEEWEELFKEFEHSIHTGDFRVLAKQMDPHVRIIYGEKRVHGREDAHKLMRDTLEKLGVDHMHVEDNHLQGDFIHLQIRRHVNGRTMTVHFLIWKYNGRWYMHSIKIE” and “SEEEKVIWDIFQDWVRAYHTGNEDLIEHLMDPHVRLDINGKEKHGREWVRYHLHELREHIRTKEYEVHHFDVVDGRAHADYEFHVEYNGREFYRRTHIEIQIVNGKIRVINIRFE” are the same in protease stability score: 1.43 for the first, 1.43 for the second.

First: TETERHIEEHLRQMVHQLRTGDFERFEDLADPNMRIDVDGKEFIGREAVDRFWRRVDVIHDLDFKDMEIQGNKVVLNVRIIGNINGVHDHTEQHIVVFKINGRWYWHSIEVH
Second: DEIEKVLEISYRLMHESWRTGDEDHLRDLIDPHARVIIDGRTYHGRDAMHLFVDELLREFGITQVDIEMKRIHVQGDKVESHHDINFNGQRVEVDISFHKVNGRWIAESVTWR
The protease stability score of the first is lower: 1.16 for the first, 1.24 for the second.

First: SEDEKWIRHAIRLLSEALETGDESMEHHLMDPNVKIRIDGVQYIGWEHWKKFVDRFDHEKIEHVHIRHIEVFNGRVDLDGFVHIILFVDGQEIRETRRTRIIVLKYNGKWLIESIEIE
Second: SEDHERTEIAFKIMLHIFDTGDEHTMHRLVDPNARLRIGDKDWHGREFFFDVISRIKNLRIEELSIEDDDFVNGRIILHGRRNGSIGDKEIDTIVHLLIKKVDGRWRIEHVHNE
The protease stability score of the first is higher: 2.3 for the first, 1.36 for the second.

Compared with “DETEEAVLSVARLWLHLFLTGDEERTQKMMDPNARVEIDGKEVVGREKVTDMIRHKIEQIRIQDHKEKDIKVIGDKVHLHVQFHGEVDGKEINTLILINVMVVDGRIKHVEIRVS”, “SEEERLAREISKELVEILLTGDEDRLLELADPDVRHILLFNGRDDDQHGRENMSRAEKLFREWLGVKHVDVTHVEVQGDKIHNDTVVDINGVRFEFRIIWVVVNGRVKVWRVEMR” is higher in protease stability score: 0.77 for the first, 1.52 for the second.

Compared with “SEDNEHLRKFLEDFIRAMETGDWKMLFRLMDPNVRMEVNGRELHGREEAKKLIEEIISRYDHVHIEIKRAHSIGDKIEVWGISDVEIGDKKHEIPLLFILKKVDGKWIIHSIRSE”, “DEDDEVAIKFLEDIIQVWETGDEEEFSRLFDPDYRVHIGDKTLHGREIVVQEILEHLRRLGIERFEVRIHIRHAHFYNGRLDLNGELVIIINGKELRRHTHFVVLKVNGRWLLEREEVK” is lower in protease stability score: 2.11 for the first, 1.76 for the second.

Going from “TEDEKVMKEAVEIQIHMFRTGNWDSLHKLVDPNARLDVDGREFHGREDFVRFIKKEAHEARVEDVIFRHVTTQGDKIVTHFDVRGVINGVEEIRKVTVFLRKINGRWLIESEEID” to “DEHTHEIEHMLRHFLETLETGDEERYDRLADPHTRIDIGDKHLHGREKAQKLWRHWWKRFDHIHHLHIHHLEAVDGVNHVELREDIRVDGRRVIIRSLLILVVIDGRLREVRVEER”, the protease stability score falls from 0.737 to 0.496.

Compared with “KELDEKVDTAIRIFHDVMLTGDEEKLIKLMDPNTRIRYNGRELHGWESHIKLREEELHELGVERVVHIFHNREIRAYDGVADIKGELEIRFNGRTVRHEFRIKFEKVNGRWVVREIEIH”, “SEDERDARELMEIEIRAKRTGDEDTLERLMDPHMRTDINGKELVGREVLEWERKRVDHIHDFRIHHVTSVNGRLDIDASLRLTVDGVEETMRFRILTRKVNGRWIVEFLIVK” is lower in protease stability score: 1.31 for the first, 0.985 for the second.

Going from “DEDREMLEELTRRLAHSVETGDEDHHSHLADPNTRETIHINGRTFEHHGWEIWSELLTRLGADHMHLDRVHVVNGRVEIRSRVHVGDKEYKVHILMVVINGRLKEVSVHIH” to “DEEEHIFQELIELWQTAMATGDEERTDRLLDPNAKIVINGVELHGMDEIKRLLEQMRLHVHDVKIDEIKFQGDYLHIDTTSDIIMRINGREHRIIVKTTVRMLKFDGRWWLHVISIR”, the protease stability score rises from 0.721 to 1.93.

Compared with “DEDEESSKLAIEFLLRALITGDEKTMSELLDPNARLVVNGVEIVGMHVIVRHFIEMRLERIHVRIRSWTVFDGRLLNDTELHRHINVNGVEEDRSNRVELFVKKVDGKWKLEMIIIN”, “SEDEKRAKEFDERFNENLLTGNFEKLLHLADPNAKVFYNGQENHGMHLFLKWMVELLKQIRVEDVELDDYKIYGEKIVLDVTIHTRFDGQETEWKTRIITTKVDGRWVLKTVEIR” is lower in protease stability score: 2.63 for the first, 1.45 for the second.

Compared with “REEEDNAEKFWEEFSKSLLTGDEDHMEELADPNARMRINGREKVGREEVRKELSHLFTHIRLKSIHLKDFKFFDGRLDIDGSLDGHINGKRREIEVHVHLWKVNGRWTLETLKIN”, “HEDEEIVKTFAKIRTELERTGDWETIMRLLDPHVRMDIDGVRVHGMEEVVRHIREFEEKFGVTNVQSRFRDVRIIGDKVDIHSQVHINGVEKNLHIHVEKFNGKWVITEIKIE” is higher in protease stability score: 1.17 for the first, 1.28 for the second.

First: DHKTKMREHAVHEWFDDVITGDERRIREYADPNVRIDIDINGRHEELHGRELFSEILTRFKNVQVEIKHVNHIGDKLHIHFRVHIDGREENVIIIMHKVDGKWVTKRFIIDDA
Second: SEEEEYALKVLEDILKAFLTGDWKITEHLLDPDARLEINGRNFVGRELIRKYLEEYLRRIDVVRIKIRHVEVQGDKNHLEGELIEIQGDKHKSMDMKIHLVIINGRVRREHVRVE
The protease stability score of the first is lower: 1.05 for the first, 2.15 for the second.

First: SEIEEEAKHVSELMVRWMETGDEKEIYKFADPHVRLEYNGREFHGRESILKHRREIIEKWGVTNIRVSPETFDVINGVVHVELILKVNGRNVIVHILIRKIDGRWRIDSESFI
Second: DEDENLMRQFWETWEEALKTGDEHILHNLMDPNYRFIIGDKEHHGREAAEEFIRRVDHVTDIKFHRYRRIGDKIQIDGHLDGEINGKRNRYRSDIFVLKIDGRWFIHSVQIK
The protease stability score of the first is lower: 1.5 for the first, 2.31 for the second.

Compared with “TEDERHLEESIELFHEVHRTGDEEQLHRMLDPSVRVDVNGRILHGREIVVEWLRRTLEKFKNVQIEFILKDRDHINGVLRIHGVLLVNVGDKHTIIDTIIVAHKVNGRWLIHSMHVK”, “SDIDELDRELMEHTLRTIRTGDEETVHRLLDPDARTLINGREYHGREWATKMMSDWNRELGIDHLEIKHVDLINGKVRIDVKITVGDKEFHMTMVYNKVNGKWINHSIHIH” is lower in protease stability score: 2.15 for the first, 0.409 for the second.

Compared with “DELTREMDRVHEELVRSLTTGDEDRLASMMDPNARLRIDGVNFIGRDKIREFWHQIDHSSMHLHHIHVYGDKIRLEGELILNFNGVEHNHETLMIIKKVDGKWVIESIHLK”, “TELREIFIHFAEMILENIQTGDEDTLDELADPNTRIDINGVTMHGREKISRHWKEHLDRYDHFRIEIKRIRSQGDFAENDVTLVIIYNGQRIRIRMEVEIIFVDGRIHSINERRE” is lower in protease stability score: 1.79 for the first, 0.225 for the second.

Going from “DEKTKEVEHLTEYLREVWETGDFESLHEMMDPHVRVDIGDKHVHGREAVAHHFRKHLENWGVTRFRIEFHVRDVRDINGVVHLDTELRILFDGVLITMRTRFIIEKINGRWVFREVIVR” to “SSDKRDAHFAMDLYYEIHLTGDEDRWRHMADPNVRLHVGEKDFHGRELWFKFMHDFGLDKIEIELKDIEVQGEKVHLDGIIRFDGREHKVEVDLRKINGRWIIDEERYK”, the protease stability score falls from 2.63 to 1.13.

First: DEYEREYKKFIDDMLHAWLTGDEDTLQELVDPNARLHFNGQELHGRDIWLRNYREHGMKVKSYHIEHREIQGEKIIIRGRLNGHVNGRNSNMDIILIIEKVDGRWVMQDIRIS
Second: DENEHQTRIWNEIFIKIFLTGDWKRLSDMADPHVRSIINGQDLHGMENLSKIVEEIREELRVRSVHLHDIKVINGVAKVDTRLDMEYGDKRTDYNIEIHTLKVDGRWHLKEIKLV
The protease stability score of the first is higher: 1.98 for the first, 0.292 for the second.

Going from “DEHDKFVEEMARRHIRNLVTGDWEEQSRLMDPHVRIEIDINGRKREYHGREDWKYWLDELKRQFDHYEVRLRDFRIQGEYALFRLEESYIIGDKVIEQETELHIDVFNGRIRRVSFSVK” to “DEDHKWAKFMFEVFKKVVETGDEEVFKHLADPNVRMEVGDKEFIGREEFRRFLNELRIHHQRDTHIEIRSVGDKIEVLIDGETTIEVGDKTRDHRMRVILFTMKVDGRWLIRSIRFEIH”, the protease stability score rises from 0.956 to 1.56.

Going from “SETEEITERWLRLALEALRTGDFEFISRLADPHVRSEYNGVEFIGREEMVRFEEERLERLGATPSDLITRDVEFQGNKVIIHQEMEMRVGDKRHTNETTIFSHKFDGRWILHSIKFH” to “DEDESLAKWAVEVLFEDLRTGDEDHLRRLMDPDTRFIIGDKIFHGREKAEEWLRLNRKRVDHLESFHIHHITVDENHLRVHGRVVGTFDGVEDKYETHIFARKVNGRWHHRQLKIK”, the protease stability score rises from 0.984 to 1.49.

First: DERTKEDEKWAKLFLEWHKTGNEEAFSHFADPHTRNTINGVELIGRESLMEFSKRWIEELRFKQLHIRDFKVVNGRVHIDSELHGIINGQEISTTVKIHIDIINGQTKSVEVRIL
Second: TEDDRDFKLALELVEHHIKTGDEDDMSRLADPHVRIDDENETHHGREEFEEFVHRMIKRFKNIKWELKRTESQGDKIRIDFRIHVGDKTLRLIIIAEKVDGRWLIHTVIIN
The protease stability score of the first is lower: 1.17 for the first, 1.35 for the second.

Going from “SEEDQLLHHQMETWRHMIHTGDEELLERFLDPTVRIEYDGQEHHGRETAAHLFRELAEKLGIEFEDLEIHETEIQGDKIRVDTILYVDINGRKLVFRTHTVWEKINGRWILREIKIE” to “DEEEERLEELSKLLLEMVLTGNWDETLELADPHALIEIGDKRFHGWEHWVKLYLRIKNVRFELRIDSVRPIGDKAEIDGHVIIRIGDKEKEFDLRVEIDVVDGRLKENSIRRR”, the protease stability score rises from 0.043 to 1.35.

First: REEDEQLKRFTDEFIQVQRTGNEDLLREYADPNVKIVVGDKELHGREEMLYVFREIRVHNSELKRMHIIDGRAEVHVTAHVRQGDKVIEVKLHIIIYKIDGRWVIESMQWE
Second: SEDHDTDRHIMDLILRDVFTGDEEEFTRLADPNVKHIDENHFSVGWENVLEMLRFWEDEARMTDIKIHDLEIQGDKIVSHVHIDGEVNGKRRELEVIIYILKVDGKWHLEYFEVR
The protease stability score of the first is lower: 1.01 for the first, 2.2 for the second.
